Experimental findings from patent US20050079613A1, “Downregulation of cell surface glycoproteins by a family of human ubiquitin ligases” (Oregon Health & Science University, priority 2002, published 2005) are described below.

The assay has as its system Fas (CD95), MHC I, HLA-A2.1, CD4, transferrin receptor, B7.1. The assay is described as follows: Surface glycoprotein panel on transfected HeLa cells, flow cytometry. The assay is classed as cell-based, human. The conditions noted are these: HeLa cells transfected with MARCH plasmid. As to the method:
Flow cytometry. Cells were removed from tissue culture dishes with 0.05% Trypsin-EDTA (Invitrogen), washed with ice-cold PBS, and incubated with appropriate antibody for 30 minutes at 4° C. The cells were washed with ice-cold PBS and either resuspended in ice-cold PBS or incubated with PE-conjugated anti-mouse secondary antibody (DAKO) and washed again before analysis with a BD Biosciences (San Jose, Calif.) FACScalibur flow cytometer.
The ability to downregulate MHC I is common to KSHV-K3, KSHV-K5, MHV68-K3 and MV-M153R (Coscoy and Ganem, 2000, supra; Guerin et al., 2002, supra; Ishido et al., 2000b supra; Stevenson et al., 2000, supra). Additional substrates are ICAM-1 and B7.2 (but not B7.1) for KSHV-K5, as well as CD95 and CD4 for M153R (Coscoy and Ganem, 2001, supra; Guerin et al., 2002, supra; Ishido et al., 2000a, supra; Mansouri et al., 2003, supra). Since only low copy numbers were detected in HeLa cells for transcripts corresponding to each of the MARCH-proteins (FIG. 7C, and data not shown), HeLa cells were transfected with expression plasmids for MARCH-I, II, III, IV, V and VIII. Surface expression of selected glycoproteins was monitored upon transfection. […] Surface expression of the respective markers was analyzed by flow cytometry. […]
A general note: In flow cytometry, cells or beads pass a laser one at a time.

B1: MARCH-V: four-transmembrane human RING-CH protein, SEQ ID NOS:47 and 58 (protein, listed as Homo sapiens)
chain: MPDQALQQMLDRSCWVCFATDEDDRTAEWVRPCRCRGSTKWVHQACLQRWVDEKQRGNSTARVACPQCNAEYLIVFPKLGPVVYVLDLADRLISKACPFAAAGIMVGSIYWTAVTYGAVTVMQVVGHKEGLDVMERADPLFLLIGLPTIPVMLILGKMIRWEDYVLRLWRKYSNKLQILNSIFPGIGCPVPRIPAEANPLADHVSATRILCGALVFPTIATIVGKLMFSSVNSNLQRTILGGIAFVAIKGAFKVYFKQQQYLRQAHRKILNYPEQEEA
B1: the “reduction in surface levels of any of the glycoproteins of the panel” value was “No reduction in surface levels”.
